The record followed here is patent US20170072032A1.

The target in assay [1] is recombinant mouse FcRn, biotinylated, immobilized on sensor chip (mouse) (UniProt Q61559). The assay can be described thus: SPR (Biacore 2000), biotinylated mouse FcRn immobilized, analyte 0.78-200 nM, pH 5.4, 25 C, Langmuir fit with drifting baseline. (In general: Surface plasmon resonance follows binding to a sensor surface in real time, without labels.)
Assay [2] addresses neonatal Fc receptor (FcRn), endogenous mouse receptor in placenta / syncytiotrophoblast cells (mouse) (UniProt Q61559). As to the kind of experiment: cell-based or functional assay.
For assay [3], the target named is recombinant human FcRn, biotinylated, immobilized on sensor chip (human) (UniProt P55899). The assay can be described thus: SPR (Biacore 2000), biotinylated human FcRn immobilized, analyte 0.78-200 nM, pH 5.4, 25 C, Langmuir fit with drifting baseline.
Chain of UniProt P55899 (P55899 24-297 limits assumed, form in doubt, chain 1 of 2): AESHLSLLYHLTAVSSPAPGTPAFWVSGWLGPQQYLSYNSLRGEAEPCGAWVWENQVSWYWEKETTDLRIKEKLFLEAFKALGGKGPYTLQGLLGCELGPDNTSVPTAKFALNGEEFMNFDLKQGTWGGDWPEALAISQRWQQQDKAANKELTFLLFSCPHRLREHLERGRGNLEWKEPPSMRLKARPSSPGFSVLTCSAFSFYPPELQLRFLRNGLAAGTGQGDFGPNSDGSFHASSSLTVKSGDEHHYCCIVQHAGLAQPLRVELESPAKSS
Chain of UniProt P55899 (chain, as listed by the source limits assumed, form in doubt, chain 2 of 2): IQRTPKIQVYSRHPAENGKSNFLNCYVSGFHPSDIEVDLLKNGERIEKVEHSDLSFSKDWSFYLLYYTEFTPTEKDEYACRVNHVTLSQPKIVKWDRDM
Assay [4] concerns the target recombinant mouse FcRn, biotinylated, immobilized on sensor chip (mouse) (UniProt Q61559). As to the kind of experiment: SPR (Biacore), immobilized biotinylated mouse FcRn, analyte 0.78-100 nM, pH 5.4; Chi2 10.1.
The target is the same in assay [5]. The assay can be described thus: SPR (Biacore), immobilized biotinylated mouse FcRn, analyte 0.78-100 nM, pH 6.4; Chi2 0.3.
Assay [6] has the same target. The assay can be described thus: SPR (Biacore), immobilized biotinylated mouse FcRn, analyte 0.78-100 nM, pH 6.4; Chi2 3.9.
Assay [7] has the same target. The assay can be described thus: SPR (Biacore), immobilized biotinylated mouse FcRn, analyte 0.78-100 nM, pH 5.4; Chi2 2.5.

A word on the Kd: it is the equilibrium constant for the complex coming apart. For orientation: koff means a measure of how fast the partners let go of each other. What is called kon is the rate constant with which the complex forms. As for “anti-CD20 rituximab monoclonal antibody (Roche), used as human IgG1 control”, in assay [1], the Kd was 1.5 nM, the koff was 0.00248 s⁻¹ and the kon is 1.63e+06 M⁻¹ s⁻¹. In assay [2], the diabetes-free offspring after IgG pre-treatment of pregnant mice 24 h before PPI-Fc (% diabetes-free mice) worked out at 49. Further, in assay [3], the Kd amounted to 6.4 nM, the koff worked out at 0.00492 s⁻¹ and the kon was found to be 765000 M⁻¹ s⁻¹.

On to “PPI2-Fc fusion protein (mouse preproinsulin 2 fused to the CH2-CH3 Fc domain of human IgG1) (from UniProt P01326 25-110)”, for which, in assay [1], the dissociation constant Kd was 5.4 nM, the off-rate constant (koff) turned out to be 0.00159 s⁻¹ and the association rate constant (kon) was determined as 292000 M⁻¹ s⁻¹. In assay [3], the Kd came out at 15.3 nM, the koff worked out at 0.00318 s⁻¹ and the kon is 208000 M⁻¹ s⁻¹.

“A2Fc (A2 domain of FVIII fused to mouse Fc gamma 1) (from UniProt P00451 392-759) (Fc fusion)”: in assay [4], the Kd was 8.53 nM, the koff was 0.00218 s⁻¹ and the kon was 256000 M⁻¹ s⁻¹. For the same substance, in assay [5], the Kd came to 52.9 nM, the dissociation rate constant (koff) was found to be 0.0016 s⁻¹ and the kon came to 30000 M⁻¹ s⁻¹.

In the case of “C2Fc (C2 domain of FVIII fused to mouse Fc gamma 1) (from UniProt P00451 2192-2351) (Fc fusion)”, in assay [6], the Kd came out at 53 nM, the koff amounted to 0.00347 s⁻¹ and the kon is 65000 M⁻¹ s⁻¹. Further, in assay [7], the Kd came to 3.7 nM, the koff stood at 0.0011 s⁻¹ and the kon worked out at 292000 M⁻¹ s⁻¹.
